Measured values from patent US20220185863A1, “COMBINATION THERAPIES” (Shattuck Labs, Inc., priority 2019, published 2022).

B1: TIGIT-Fc-OX40L: chimeric protein: extracellular domain of TIGIT, hinge-CH2-CH3 Fc linker, extracellular domain of OX40L (SEQ ID NO: 60) (protein)
chain: MMTGTIETTGNISAEKGGSIILQCHLSSTTAQVTQVNWEQQDQLLAICNADLGWHISPSFKDRVAPGPGLGLTLQSLTVNDTGEYFCIYHTYPDGTYTGRIFLEVLESSVAEHGARFQIPSKYGPPCPPCPAPEFLGGPSVFLFPPKPKDQLMISRTPEVTCVVVDVSQEDPEVQFNWYVDGVEVHNAKTKPREEQFNSTYRVVSVLTVLHQDWLSGKEYKCKVSSKGLPSSIEKTISNATGQPREPQVYTLPPSQEEMTKNQVSLTCLVKGFYPSDIAVEWESNGQPENNYKTTPPVLDSDGSFFLYSRLTVDKSRWQEGNVFSCSVLHEALHNHYTQKSLSLSLGKIEGRMDQVSHRYPRIQSIKVQFTEYKKEKGFILTSQKEDEIMKVQNNSVIINCDGFYLISLKGYFSQEVNISLHYQKDEEPLFQLKKVRSVNSLMVASLTYKDKVYLNVTTDNTSLDDFHVNGGELILIHQNPGEFCVL
B2: TIGIT-Fc-LIGHT: chimeric protein: extracellular domain of TIGIT, hinge-CH2-CH3 Fc linker, extracellular domain of LIGHT (SEQ ID NO: 61) (protein)
chain: MEWSWVFLFFLSVTTGVHSMMTGTIETTGNISAEKGGSIILQCHLSSTTAQVTQVNWEQQDQLLAICNADLGWHISPSFKDRVAPGPGLGLTLQSLTVNDTGEYFCIYHTYPDGTYTGRIFLEVLESSVAEHGARFQIPSKYGPPCPPCPAPEFLGGPSVFLFPPKPKDQLMISRTPEVTCVVVDVSQEDPEVQFNWYVDGVEVHNAKTKPREEQFNSTYRVVSVLTVLHQDWLSGKEYKCKVSSKGLPSSIEKTISNATGQPREPQVYTLPPSQEEMTKNQVSLTCLVKGFYPSDIAVEWESNGQPENNYKTTPPVLDSDGSFFLYSRLTVDKSRWQEGNVFSCSVLHEALHNHYTQKSLSLSLGKIEGRMDLQLHWRLGEMVTRLPDGPAGSWEQLIQERRSHEVNPAAHLTGANSSLTGSGGPLLWETQLGLAFLRGLSYHDGALVVTKAGYYYIYSKVQLGGVGCPLGLASTITHGLYKRTPRYPEELELLVSQQSPCGRATSSSRVWWDSSFLGGVVHLEAGEKVVVRVLDERLVRLRDGTRSYFGAFMV

Legend:
[1] = tested on: tumor infiltrating lymphocytes (TIL) of CT26 (colorectal carcinoma) tumors; assay: Immune phenotyping of tumor infiltrating lymphocytes (TIL) by flow cytometry; format: in vivo, BALB/C mice; conditions: IP days 0, 3, 6; 300 mg ARC, 100 mg anti-PD-1; tumor collected day 7
From the text: FIG. 6A to FIG. 6G show the results of immune phenotyping of the tumor infiltrating lymphocytes (TIL) in BALB/C mice harboring CT26 (colorectal carcinoma) tumor allografts treated with ARC (TIGIT-Fc-OX40L or TIGIT-Fc-LIGHT) alone or the combination with anti-PD-1 (clone RMP1-14) antibody. The fractions (expressed as percentages) of total CD8^+ cells (FIG. 6A), total Perforin CD8^+ cells (FIG. 6B), total IFNγ^+ CD8^+ cells (FIG. 6C), total AH1-tetramer CD8^+ cells (antigen-specific CD8^+ cells) (FIG. 6D), total CD4±cells (FIG. 6E), total NKP46^+ NK cells (FIG. 6F) and total IFNγ±(NKP46^+ NK) cells (FIG. 6G) in the indicated cell populations in the dissociated tumor tissue as determined by flow cytometry analyses.
BALB/C mice were inoculated with CT26 (colorectal carcinoma) tumors, and when starting tumor volumes reached 30-60 mm^3 (indicating day 0), treatment was begun. Mice were treated via intraperitoneal (IP) injection on days 0, 3, and 6 with […] of either ARC (TIGIT-Fc-OX40L or TIGIT-Fc-LIGHT) or the combination of each ARC with […] of anti-PD-1 (clone RMP1-14). On day 7, mice were euthanized, tumor tissue was collected and dissociated, and analyzed by flow cytometry and calculated as percent cell types. The total % of CD8+ T cells detected in the tumor are similar between treatment groups (FIG. 6A).
The immunodominant CD8+ T cell response against CT26 carcinoma cells is directed against a tumor/self-antigen, GP70423-431, also known as AH1. To evaluate the T cell response against CT26, total AH1-tetramer CD8^+ cells were quantitated.
Other relevant cell types, including total % of CD4+ T cells, NKP46^+ NK cells, including the total IFNγ±NKP46^+ NK cells in the tumors were also quantitated. […] The IFNγ±cells were quantitated among NKP46^+ NK cells.

tumors [2] = assay: In vivo anti-tumor activity of TIGIT-Fc-OX40L chimeric protein and anti-CTLA-4 antibody in tumor-inoculated mice
Description: The in vivo ability of combinations of the TIGIT-Fc-OX40L chimeric protein with anti-CTLA-4 antibodies (FIG. 3A to FIG. 3C) to target and treat tumors were determined.
(§1) Mice were inoculated with tumors and were treated with a vehicle, an antibody, the TIGIT-Fc-OX40L chimeric protein, or combinations of the TIGIT-Fc-OX40L chimeric protein and an anti-CTLA-4 antibody; in the combinations, the TIGIT-Fc-OX40L chimeric protein was administered before the antibody, the TIGIT-Fc-OX40L chimeric protein was administered after the antibody, or the TIGIT-Fc-OX40L chimeric protein was administered with the antibody. See, FIG. 3A for the dose schedules.
FIG. 3C includes data relevant to the graphs of FIG. 3A and FIG. 3B.

tumors [3] = assay: In vivo anti-tumor activity of TIGIT-Fc-OX40L chimeric protein and anti-PD-1 antibody in tumor-inoculated mice
Description: The in vivo ability of combinations of the TIGIT-Fc-OX40L chimeric protein with anti-PD-1 antibodies (FIG. 4A to FIG. 4D) to target and treat tumors were determined.
as §1, with “anti-PD-1” for “anti-CTLA-4”, “antibody.” for “antibody. See, FIG. 3A for the dose schedules.”
FIG. 4C and FIG. 4D include data relevant to the graphs of FIG. 4A and FIG. 4B.

CT26 tumor = assay: In vivo anti-tumor activity of TIGIT-Fc-LIGHT chimeric protein and anti-PD1 antibody in mice challenged with CT26 tumor; design: species or system mouse; conditions: monotherapy on days 1, 3, and 6, compared to vehicle only-treated mice
From the text: FIG. 5B is a Kaplan Meyer plot of survival and statistics of the CT26 tumor experiment of FIG. 5A. […] FIG. 5C and FIG. 5D includes data relevant to the graphs of FIG. 5A and FIG. 5B.

[4] = administered on days 7, 9, and 11, compared to vehicle only-treated mice and to days 12, 14, 16 schedule
[5] = administered on days 12, 14, and 16, compared to vehicle only-treated mice
[6] = compared to the dosing regimen-matched αCTLA antibody-treated mice
[7] = compared to the dosing regimen-matched αPD-1 antibody-treated mice

Molecule	total AH1-tetramer CD8+ cells among the total CD8+ cells [1]	total CD4+ cells among the total mononuclear cells [1]	total IFNγ+ CD8+ cells among the total CD8+ cells [1]	total IFNγ+ cells among the total NKP46+ NK cells [1]	total NKP46+ NK cells among the total mononuclear cells [1]	total Perforin CD8+ cells among the total CD8+ cells [1]	survival (tumors [2]; [4])	tumor development (tumors [2]; [4])	survival (tumors [2]; [5])	tumor development (tumors [2]; [5])	survival (tumors [2]; [6])	tumor development (tumors [2]; [6])	survival (tumors [3]; [4])	tumor development (tumors [3]; [4])	survival (tumors [3]; [5])	tumor development (tumors [3]; [5])	survival (tumors [3]; [7])	tumor development (tumors [3]; [7])	survival (CT26 tumor)	tumor development (CT26 tumor)
B1	increased	increased	increased	increased	increased	increased	extended survival	slower tumor development	extended survival	slower tumor development	extended survival	slower tumor development	extended survival	slower tumor development	extended survival	slower tumor development	extended survival	slower tumor development	–	–
B2	increased	increased	increased	increased	increased	increased	–	–	–	–	–	–	–	–	–	–	–	–	extended survival	slower tumor development
